Measured values published in paper PMC5198506, “Mechanistic differences between HIV-1 and SIV nucleocapsid proteins and cross-species HIV-1 genomic RNA recognition”.

Assays:
[1] = tested on: SIV NC (SIVmne); assay: fluorescence anisotropy salt titration; details: FA: 20 mM HEPES pH 7.5, 30-750 mM NaCl, 1 mM MgCl2, 20 µM TCEP, 5 mM 2-mercaptoethanol, room temperature, 400 nM NC, 10 nM RNA (Gag: 20 nM RNA, plus 2 mM …)
[2] = tested on: SIV NC (SIVmne); assay: single-molecule DNA stretching; details: FA: 20 mM HEPES pH 7.5, 30-750 mM NaCl, 1 mM MgCl2, 20 µM TCEP, 5 mM 2-mercaptoethanol, room temperature, 400 nM NC, 10 nM RNA (Gag: 20 nM RNA, plus 2 mM …)
[3] = target: HIV-1 NC (HIV-1 NL4-3) (UniProt P12493); assay: single-molecule DNA stretching; details: FA: 20 mM HEPES pH 7.5, 30-750 mM NaCl, 1 mM MgCl2, 20 µM TCEP, 5 mM 2-mercaptoethanol, room temperature, 400 nM NC, 10 nM RNA (Gag: 20 nM RNA, plus 2 mM …)
[4] = target: HIV-1 NC (HIV-1 NL4-3) (UniProt P12493); assay: fluorescence anisotropy salt titration; details: FA: 20 mM HEPES pH 7.5, 30-750 mM NaCl, 1 mM MgCl2, 20 µM TCEP, 5 mM 2-mercaptoethanol, room temperature, 400 nM NC, 10 nM RNA (Gag: 20 nM RNA, plus 2 mM …)
[5] = target: T1, HIV-1 NC (HIV-1 NL4-3, UniProt P12493 378-432); assay: fluorescence anisotropy salt titration; Kd(1M) extrapolated to 1 M NaCl; Zeff 2.4 ± 0.4; FA: 20 mM HEPES pH 7.5, 30-750 mM NaCl, 1 mM MgCl2, 20 µM TCEP, 5 mM 2-mercaptoethanol, room temperature, 400 nM NC, 10 nM RNA (Gag: 20 nM RNA, plus 2 mM Tris-HCl pH 7.4); stretching buffer not in material; details: protein: recombinant; label: 3' fluorescein (thiosemicarbazide); hairpin
[6] = target: T1, HIV-1 NC; assay: fluorescence anisotropy salt titration; Kd(1M) extrapolated to 1 M NaCl; Zeff 2.6 ± 0.4; FA: 20 mM HEPES pH 7.5, 30-750 mM NaCl, 1 mM MgCl2, 20 µM TCEP, 5 mM 2-mercaptoethanol, room temperature, 400 nM NC, 10 nM RNA (Gag: 20 nM RNA, plus 2 mM Tris-HCl pH 7.4); stretching buffer not in material; details: protein: recombinant; label: 3' fluorescein (thiosemicarbazide); hairpin
[7] = target: T1, HIV-1 NC; assay: fluorescence anisotropy salt titration; Kd(1M) extrapolated to 1 M NaCl; Zeff 3.6 ± 0.9; FA: 20 mM HEPES pH 7.5, 30-750 mM NaCl, 1 mM MgCl2, 20 µM TCEP, 5 mM 2-mercaptoethanol, room temperature, 400 nM NC, 10 nM RNA (Gag: 20 nM RNA, plus 2 mM Tris-HCl pH 7.4); stretching buffer not in material; details: protein: recombinant; label: 3' fluorescein (thiosemicarbazide); stem-loops

AGUCGCUCUGCGGAGAGGCUGGCAGAUUGAGCCCUGGGAGGUUCUCUCCAGCACUAGCAGGUAGAGCCUGGGUGUUCCCUGCUAGACUCUCACCAGCACUUGGCCGGUGCUGGGCAGAGUGACU [SIV TAR RNA]
Kd [1]: 62 µM

CCACGACGGAGUGCUCCUAUAAAGACGCGGGUCGGUACCAGACGGCGUGAGGAGCGGGAGAGGAAGAGGCCUCCGGUUGCAGGUAAGUGCAACACAAAAAAGAAAUAGCUGUCUUUUAUCCAGGAAGGGGUAAUAAGAUAGAGUGG [SIV Psi RNA (WT)]
Kd [1]: 72 µM

GGUCUCUCUGGUUAGACCAGAUCUGAGCCUGGGAGCUCUCUGGCUAACUAGGGAACCCACUGCUUAAGCCUCAAUAAAGCUUGCCUUGAGUGCUCAAAGUAGUG [HIV-1 TARpolyA RNA]
Kd [1]: 82 µM

dsDNA used for single-molecule stretching
Kd [2]: 0.0055 µM
Kd [3]: 0.0042 µM

HIV-1 Psi RNA (WT)
Kd [1]: 3.9 µM
Kd [4]: 4 µM

B1: HIV-1 TARpolyA RNA (structured_RNA)
RNA: GGUCUCUCUGGUUAGACCAGAUCUGAGCCUGGGAGCUCUCUGGCUAACUAGGGAACCCACUGCUUAAGCCUCAAUAAAGCUUGCCUUGAGUGCUCAAAGUAGUG
Kd [5]: 120 µM

B2: SIV TAR RNA (structured_RNA)
RNA: AGUCGCUCUGCGGAGAGGCUGGCAGAUUGAGCCCUGGGAGGUUCUCUCCAGCACUAGCAGGUAGAGCCUGGGUGUUCCCUGCUAGACUCUCACCAGCACUUGGCCGGUGCUGGGCAGAGUGACU
Kd [6]: 81 µM

B3: SIV Psi RNA (WT) (structured_RNA)
RNA: CCACGACGGAGUGCUCCUAUAAAGACGCGGGUCGGUACCAGACGGCGUGAGGAGCGGGAGAGGAAGAGGCCUCCGGUUGCAGGUAAGUGCAACACAAAAAAGAAAUAGCUGUCUUUUAUCCAGGAAGGGGUAAUAAGAUAGAGUGG
Kd [7]: 100 µM
